# In patent publication US12618050B2, “Engineered polypeptides that exhibit increased catalytic efficiency for unnatural cofactors and uses thereof” (The Regents of the University of California, priority 2018, dated 2026):
# Residue numbers refer to the chain shown, from its start. Names may count otherwise. “Also recorded” adds a separate entry of the source.
# B1: I195R: Bs GDH, same sequence as SEQ ID NO:1 except I195R (SEQ ID NO:2) (protein)
# chain: MYPDLKGKVVAITGAASGLGKAMAIRFGKEQAKVVINYYSNKQDPNEVKEEVIKAGGEAVVVQGDVTKEEDVKNIVQTAIKEFGTLDIMINNAGLENPVPSHEMPLKDWDKVIGTNLTGAFLGSREAIKYFVENDIKGNVINMSSVHEVIPWPLFVHYAASKGGIKLMTETLALEYAPKGIRVNNIGPGAINTPRNAEKFADPKQKADVESMIPMGYIGEPEEIAAVAAWLASKEASYVTGITLFADGGMTQYPSFQAGRG
# modifications: I195R mutant GDH coding sequence
# B2: I195R-A93K-Y39Q-S17E: Bs GDH with I195R, A93K, Y39Q, S17E substitutions (SEQ ID NO:7) (protein)
# chain: B1 chain with S17E, Y39Q, A93K
# modifications: I195R A93K Y39Q S17E mutant GDH coding sequence
# B3: XenA: enoate reductase XenA from Pseudomonas putida, wild type (protein, listed as Pseudomonas putida)
# chain: MSALFEPYTLKDVTLRNRIAIPPMCQYMAEDGLINDWHQVHYASMARGGAGLLVVEATAVAPEGRITPGCAGIWSDAHAQAFVPVVQAIKAAGSVPGIQIAHAGRKASANRPWEGDDHIGADDARGWETIAPSAIAFGAHLPNVPRAMTLDDIARVKQDFVDAARRARDAGFEWIELHFAHGYLGQSFFSEHSNKRTDAYGGSFDNRSRFLLETLAAVREVWPENLPLTARFGVLEYDGRDEQTLEESIELARRFKAGGLDLLSVSVGFTIPETNIPWGPAFMGPIAERVRREAKLPVTSAWGFGTPQLAEAALQANQLDLVSVGRAHLADPHWAYFAAKELGVEKASWTLPAPYAHWLERYR
# Legend:
# [1] = XenA-GDH coupled cycling biotransformation of ketoisophorone to levodione; format: biochemical
# Description: Coupled enzymatic biotransformation. All biotransformation reactions were performed in buffer A at 30° C. for 24 hours. Reaction buffer A, modified from that disclosed in Chaparro-Riggers et al., Advanced Synthesis & Catalysis 349(8-9):1521-1531 (2007)), contained 200 mM potassium phosphate buffer (pH 7.5), 1 M NaCl, 300 mM D-glucose, 6 mM NMN^+ (or NADP^+ as the positive control), and substrates. All assays were performed in triplicate, with no proteins or no cofactors added as negative controls. The protein loading for GDH variants was kept at 0.33 mg mL^−1 or 11.7 μM. The various enzymes for biotransformation reactions were added at the concentration of 0.75 mg mL^−1.
# For XenA-GDH coupled cycling assays, the substrates ketoisophorone, citral, or trans-2-hexen-1-al were added at 33 mM, 10 mM, or 50 mM, respectively. For the OYE3-GDH coupled cycling assays, the substrate 4-phenyl-3-butyn-2-one was added at 5 mM. At various time points over 24 hours, 100 μL samples were taken and extracted with 100 μL ethyl acetate. Conversion was determined via GC-FID with octanol as an internal standard (see below). For NfsB-GDH coupled cycling assays, 2 mM nitrofurazone was used as the substrate. Nitrofurazone conversion was measured spectroscopically at 400 nm and quantification was performed using a standard curve. The initial levels of the above-mentioned substrates were mainly determined by their solubility in the assay buffer. For BM3-GDH coupled cycling assays, 50 μM cytochrome c (C2506 Sigma) was used as the substrate. The reduction of cytochrome c was measured spectroscopically at 550 nm. and the quantification was performed using extinction coefficient ε550 of 21.1 mM^−1 cm^−1.
# Coupled cycling conditions: All biotransformation reactions were performed in buffer A at 30° C. for 24 hours. Reaction buffer A contained 200 mM potassium phosphate buffer (pH 7.5), 1 M NaCl, 300 mM D-glucose, 6 mM NMN^+. Substrate ketoisophorone was added at 5 g/L. At various time points over 24 hours, 100 μL samples were taken and extracted with 100 μL ethyl acetate. Conversion was determined via GC-FID with octanol as an internal standard (see below).
# [2] = GDH enzymatic assay with NMN^+ as cofactor; format: biochemical; settings: for Kcat / Km: cofactor NMN^+
# Description: (§1) GDH enzymatic assays. The GDH activity was measured as described in Hilt et al. (Biochimica et biophysica acta 1076(2):298-304 (1991)). The reactions were started by adding the purified protein to the assay mixture containing 35 mM Tris-HCl buffer (pH 8.0), 3 mM NAD^+, NADP^+ or NMN^+ and 140 mM glucose. The absorbance variation at 340 nm was detected by a spectrophotometer at 25° C.
# [3] = GDH enzymatic assay with NADP^+ as cofactor; format: biochemical; settings: for Kcat / Km: cofactor NADP^+
# Description: as §1
# [4] = GDH enzymatic assay with NAD^+ as cofactor; format: biochemical; settings: for Kcat / Km: cofactor NAD^+
# Description: as §1
# [5] = Protein expression levels of GDH variants; set-up: species or system Escherichia coli; settings: expressed in E. coli
# Description: Proteins were purified as 6×His tag fusion at the N-terminus. E. coli BL21 (DE3) with plasmids were inoculated into LB medium with 200 mg L^−1 ampicillin. Cells were induced with 0.5 mM IPTG and expressed for 24 hours at 30° C. with shaking at 250 rpm. BM3 cytochrome P450 was extracted with the EMD Millipore™ BugBuste Plus Lysonase Kit and purified using the HisPur™ Ni-NTA Superflow Purification System according to the manufacturer's instructions. Other proteins were purified using His-Spin Protein Miniprep kit (Zymo Research Corporation, CA). The purified proteins were quantified by Bradford assay.
# E. coli whole cells = assay: NMN^+-dependent whole-cell biotransformation of KIP; format: cell-based, Escherichia coli
# Description: NMN^+-dependent whole-cell biotransformation. One biotransformation plasmid expressing XenA, LVR, or ADH with a GDH (selected from pLZ217-pLZ225) and pSM104 containing the glucose transport facilitator were transformed into strain MX102 by electroporation. 4 mL seed cultures of 2×YT media with appropriate antibiotics, 0.1 mM IPTG, and 0.2% (wt/v) glucose were cultured at 30° C. while shaking at 250 rpm for 16 hours. 0.5% (v/v) seed cultures were used to inoculate 150 mL of 2×YT media with appropriate antibiotics, A5 trace metals with cobalt, and 0.5 mM IPTG in a 250 mL baffled shake flask and cultured at 30° C. at 250 rpm. When an OD600˜0.4 was reached, protein expression was induced with 0.1% (w/v) arabinose and cultured for an additional 8 hours at 30° C. while shaking at 250 rpm. Cells were harvested by centrifugation for 15 minutes at 20° C. at 3750 rpm. The supernatant was discarded. Nutrients from the media were removed by washing the pelleted cells 3 times with 50 mL of 100 mM potassium phosphate at pH 7.5. Cells were resuspended to an OD600 of 100 in assay buffer consisting of 100 mM potassium phosphate buffer at pH 7.5, 200 mM D-glucose, 0.5% arabinose, and 0.5 mM IPTG. 1 mL of resuspended cells were added to 20 mL of identical assay buffer in a 250 mL unbaffled, screw-cap shake flask. KIP was spiked into the flask to 5 g/L to initiate the reaction. Flask caps were secured tightly to prevent evaporative loss of substrate or products. Flasks were incubated at 30° C. while shaking at 250 rpm for 48 hours. After 48 hours, 1 mL of culture was pelleted, and the supernatant was used for analysis. 200 μL of supernatant was extracted with an equal volume of ethyl acetate containing 200 mg/L octanol as an internal standard, and the samples were analyzed by gas chromatography. For samples expressing all three conversion enzymes (XenA, LVR, and ADH) on the same vector (pLZ226), the Bs GDH was expressed individually on a separate vector (pSM106, pSM107, or pSM108). The Zm glf gene was also expressed in the system (pSM110).
# E. coli strain MX103 = assay: E. coli growth with NMN^+-dependent glycolysis; format: cell-based, Escherichia coli
# [6] = XenA activity with different cofactors; format: biochemical; settings: ketoisophorone as substrate
# Description: Enzyme assay conditions: The enzymatic buffer contained 200 mM phosphate buffer (pH 7.5), 5 mM ketoisophorone, and 0.2 mM NADPH, NADH, or NMNH, and appropriate amount of purified XenA protein. The initial reaction rate was quantified by absorbance variation at 340 nm using a spectrophotometer at 37° C. Reactions with no ketoisophorone added were performed to quantify the non-specific reaction rate. The net reaction rate as shown in FIG. 13 was calculated by subtracting the non-specific reaction rate from the total reaction rate. For generating NMNH, a microcentrifuge tube (2 mL) containing 35 mM Tris-HCl (pH 8.0), 4 mM NMN^+, 1 M NaCl and 140 mM glucose, was incubated for ˜3 hr at 30° C. with purified Bs GDH I195R. An aliquot of this reaction system was taken to measure the accumulation of NMNH by reading absorbance at 340 nm. The proteins in the reaction were removed by filtering the mixture with centrifugal filter units (Amicon Ultra-0.5 Centrifugal Filter Units, Millipore, USA). The solvent was evaporated, and the residue was collected to give NMNH as a yellowish oil.
molecule,measurement,setting,value
B1,initial productivity of levodione,"[1]; NMN^+ as cycling cofactor, XenA in excess, GDH 11.7 μM",~0.51 µM/s
same,improvement of NMN^+-dependent productivity,[1]; versus wild type Bs GDH,10 fold
same,Kcat,[2],1.1 ± 0.27 s⁻¹
same,Km,[2],8.9 ± 0.69 mM
same,improvement of specific activity towards NMN^+,[2]; versus wild-type Bs GDH,545 fold
same,Kcat,[3],2.5 ± 0.21 s⁻¹
same,Km,[3],0.016 ± 0.0008 mM
same,Kcat,[4],7.3 ± 1.1 s⁻¹
same,Km,[4],0.053 ± 0.0092 mM
same,Expression level,[5],108.83 μg protein/ml culture
B2,change of NMN^+-dependent catalytic efficiency compared with GDH Triple,[2],modest reduction
same,Kcat,[2],1.21 ± 0.09 s⁻¹
same,Km,[2],5.9 ± 1 mM
same,overall specificity switch towards NMN^+ from NADP^+,[2]; compared to wild type,~1×10^7 fold
same,overall specificity switch towards NMN^+ from NAD^+,[2]; compared to wild type,~2×10^7 fold
same,Kcat,[3],0.022 ± 0.013 s⁻¹
same,Km,[3],2 mM
same,drop of catalytic efficiency for NADP^+ upon introducing S17E,[3]; compared with GDH Triple,890 fold
same,Kcat,[4],0.025 ± 0.002 s⁻¹
same,Km,[4],6.5 mM
same,drop of catalytic efficiency for NAD^+ upon introducing S17E,[4]; compared with GDH Triple,220 fold
same,levodione fraction of total products by mass,"E. coli whole cells; XenA, LVR and ADH over-expressed simultaneously",~92%
same,LVR- and ADH-catalyzed formation of phorenol or HIP,E. coli whole cells; resting cells with LVR or ADH,minimal levels of phorenol or HIP
same,levodione produced,"E. coli whole cells; resting cells with XenA, 5 g/L KIP, glucose co-substrate",~1 g/L
same,cell growth on glucose,"E. coli strain MX103; minimal glucose medium, GDH without XenA",did not grow
same,cell growth on glucose,"E. coli strain MX103; minimal medium, glucose sole carbon source, GDH with XenA, listed as GDH Ortho",able to grow; also recorded: supported E. coli growth on glucose
B3,activity with NMNH as reducing cofactor,[6],comparable activity to the natural cofactors NADH and NADPH; also recorded: comparable activity to the natural cofactors NADPH and NADH
